Assay results published in publication PMC9482650, “Quantitative fragmentomics allow affinity mapping of interactomes” (Nature Communications, 2022).
Residue numbers refer to the chain shown, from its start.

Key:
Assay in all cases: holdup assay
Design in all cases: key: below the threshold = too weak to quantify, mostly under pKd 3.1 to 4
[1] = molecular target: T1, LIN7B, Q9HAP6; conditions: plain residues with an end cap or a label only (N-terminal biotin on a linker: ado-ado)
T1 sequence (Q9HAP6 88-185, limits assumed, looked up): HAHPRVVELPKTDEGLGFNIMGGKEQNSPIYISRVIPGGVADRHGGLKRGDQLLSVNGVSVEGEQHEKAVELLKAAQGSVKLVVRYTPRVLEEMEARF

[2] = molecular target: DLG2_3, Q15700; conditions: plain residues with an end cap or a label only (N-terminal biotin on a linker: ado-ado)
[3] = molecular target: GRID2IP_2, A4D2P6
Sequence of GRID2IP_2, A4D2P6 (A4D2P6 272-370): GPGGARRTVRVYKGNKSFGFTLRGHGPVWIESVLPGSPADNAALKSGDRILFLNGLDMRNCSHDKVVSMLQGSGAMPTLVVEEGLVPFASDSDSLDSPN

[4] = molecular target: T2, SYNJ2BP, P57105
T2 sequence (P57105 8-110, limits assumed, looked up): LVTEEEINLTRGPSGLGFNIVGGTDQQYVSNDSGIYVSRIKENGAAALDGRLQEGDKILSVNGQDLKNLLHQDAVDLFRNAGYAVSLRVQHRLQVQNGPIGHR

[5] = molecular target: T3, DFNB31_3, Q9P202; conditions: plain residues with an end cap or a label only (N-terminal biotin on a linker: ado-ado)
T3 sequence (Q9P202 811-907, limits assumed, looked up): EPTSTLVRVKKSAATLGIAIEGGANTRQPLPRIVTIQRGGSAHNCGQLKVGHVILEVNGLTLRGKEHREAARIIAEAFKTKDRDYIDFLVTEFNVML

[6] = molecular target: GIPC2, Q8TF65
Sequence of GIPC2, Q8TF65 (Q8TF65 112-203): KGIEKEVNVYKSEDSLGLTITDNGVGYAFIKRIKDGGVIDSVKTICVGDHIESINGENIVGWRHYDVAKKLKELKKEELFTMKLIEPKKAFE

[7] = molecular target: T4, PDZD7_3, Q9H5P4; conditions: plain residues with an end cap or a label only (N-terminal biotin on a linker: ado-ado)
T4 sequence (Q9H5P4 857-944, limits assumed, looked up): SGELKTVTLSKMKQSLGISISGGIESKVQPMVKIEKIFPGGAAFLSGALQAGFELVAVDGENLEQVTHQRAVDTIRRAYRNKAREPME

[8] = molecular target: T5, TIAM2, Q8IVF5
T5 sequence (Q8IVF5 885-986, limits assumed, looked up): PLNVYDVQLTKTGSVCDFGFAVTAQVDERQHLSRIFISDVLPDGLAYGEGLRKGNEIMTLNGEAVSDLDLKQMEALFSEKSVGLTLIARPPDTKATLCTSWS

[9] = molecular target: T6, MPP6, Q9NZW5; conditions: plain residues with an end cap or a label only (N-terminal biotin on a linker: ado-ado)
T6 sequence (Q9NZW5 125-219, limits assumed, looked up): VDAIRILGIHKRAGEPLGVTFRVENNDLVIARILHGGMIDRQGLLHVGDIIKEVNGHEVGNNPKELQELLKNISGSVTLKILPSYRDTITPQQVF

[10] = molecular target: PTPN3, P26045; conditions: plain residues with an end cap or a label only (N-terminal biotin on a linker: ado-ado)
Sequence of PTPN3, P26045 (P26045 505-587): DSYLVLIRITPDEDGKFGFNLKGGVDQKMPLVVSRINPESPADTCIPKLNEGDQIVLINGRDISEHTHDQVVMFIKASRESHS

[11] = molecular target: MAGI1_2, Q96QZ7
Sequence of MAGI1_2, Q96QZ7 (Q96QZ7 456-580): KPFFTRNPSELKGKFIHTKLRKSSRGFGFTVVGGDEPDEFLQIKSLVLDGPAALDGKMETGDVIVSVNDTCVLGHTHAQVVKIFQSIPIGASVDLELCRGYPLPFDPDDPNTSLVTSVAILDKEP

[12] = molecular target: T7, HTRA3, P83110; conditions: plain residues with an end cap or a label only (N-terminal biotin on a linker: ado-ado)
T7 sequence (P83110 354-453, limits assumed, looked up): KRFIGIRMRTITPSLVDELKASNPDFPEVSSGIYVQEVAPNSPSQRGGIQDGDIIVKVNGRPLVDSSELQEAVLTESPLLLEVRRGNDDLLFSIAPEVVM

[13] = molecular target: T8, LIN7C, Q9NUP9; conditions: plain residues with an end cap or a label only (N-terminal biotin on a linker: ado-ado)
T8 sequence (Q9NUP9 88-185, limits assumed, looked up): T1 sequence (Q9HAP6 88-185, limits assumed, looked up) with A2S, D13E, V35I, V40I, Q65H, S79K, R89K, A96S

[14] = molecular target: NHERF4_1, Q86UT5-2; conditions: plain residues with an end cap or a label only (N-terminal biotin on a linker: ado-ado)
Sequence of NHERF4_1, Q86UT5-2 (Q86UT5 other isoform, or with tags, fused parts or gaps): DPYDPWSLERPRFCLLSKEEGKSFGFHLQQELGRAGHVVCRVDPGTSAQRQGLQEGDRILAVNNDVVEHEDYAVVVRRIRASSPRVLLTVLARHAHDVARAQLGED

[15] = molecular target: MAST1, Q9Y2H9
Sequence of MAST1, Q9Y2H9 (Q9Y2H9 962-1065): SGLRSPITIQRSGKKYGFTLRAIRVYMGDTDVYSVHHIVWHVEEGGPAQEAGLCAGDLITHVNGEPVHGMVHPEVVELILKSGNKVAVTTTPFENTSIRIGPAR

[16] = molecular target: APBA3_1, O96018; conditions: plain residues with an end cap or a label only
Sequence of APBA3_1, O96018 (O96018 other isoform, or with tags, fused parts or gaps): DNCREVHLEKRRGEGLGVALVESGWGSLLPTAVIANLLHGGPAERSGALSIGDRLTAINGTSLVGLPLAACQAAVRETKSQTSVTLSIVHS

[17] = molecular target: T9, DLG3_1, Q92796; conditions: plain residues with an end cap or a label only (N-terminal biotin on a linker: ado-ado)
T9 sequence (Q92796 125-227, limits assumed, looked up): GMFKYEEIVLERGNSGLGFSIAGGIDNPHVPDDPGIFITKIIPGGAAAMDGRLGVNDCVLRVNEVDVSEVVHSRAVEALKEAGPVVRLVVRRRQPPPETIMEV

[18] = molecular target: FRMPD2_1, Q68DX3; conditions: plain residues with an end cap or a label only (N-terminal biotin on a linker: ado-ado)
Sequence of FRMPD2_1, Q68DX3 (Q68DX3 770-861): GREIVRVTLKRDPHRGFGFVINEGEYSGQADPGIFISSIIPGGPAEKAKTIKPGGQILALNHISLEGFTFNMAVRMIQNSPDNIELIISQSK

[19] = molecular target: TJP2_1, Q9UDY2; conditions: plain residues with an end cap or a label only (N-terminal biotin on a linker: ado-ado)
Sequence of TJP2_1, Q9UDY2 (Q9UDY2 24-128): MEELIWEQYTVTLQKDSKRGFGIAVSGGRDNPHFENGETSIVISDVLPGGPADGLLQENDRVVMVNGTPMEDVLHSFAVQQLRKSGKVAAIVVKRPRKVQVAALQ

[20] = molecular target: T10, ARHGAP21, Q5T5U3; conditions: plain residues with an end cap or a label only (N-terminal biotin on a linker: ado-ado)
T10 sequence (Q5T5U3 45-169, limits assumed, looked up): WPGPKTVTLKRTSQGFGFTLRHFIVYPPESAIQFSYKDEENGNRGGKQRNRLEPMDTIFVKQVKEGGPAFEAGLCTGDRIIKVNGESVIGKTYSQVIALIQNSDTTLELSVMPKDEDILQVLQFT

[21] = molecular target: T11, SHANK1, Q9Y566; conditions: plain residues with an end cap or a label only (N-terminal biotin on a linker: ado-ado)
T11 sequence (Q9Y566 658-767, limits assumed, looked up): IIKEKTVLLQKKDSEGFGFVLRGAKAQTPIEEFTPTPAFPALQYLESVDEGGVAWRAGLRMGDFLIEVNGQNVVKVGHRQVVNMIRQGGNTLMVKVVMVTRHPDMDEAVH

[22] = molecular target: LNX1_1, Q8TBB1
Sequence of LNX1_1, Q8TBB1 (Q8TBB1 261-371): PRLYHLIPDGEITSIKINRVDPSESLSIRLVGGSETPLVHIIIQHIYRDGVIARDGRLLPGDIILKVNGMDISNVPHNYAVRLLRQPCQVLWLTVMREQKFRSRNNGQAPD

[23] = molecular target: IL16_3, Q14005; conditions: plain residues with an end cap or a label only (N-terminal biotin on a linker: ado-ado)
Sequence of IL16_3, Q14005 (Q14005 1107-1207): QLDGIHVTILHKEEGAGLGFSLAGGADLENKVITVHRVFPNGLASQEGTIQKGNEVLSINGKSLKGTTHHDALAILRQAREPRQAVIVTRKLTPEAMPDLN

[24] = molecular target: T12, GRIP1_5, Q9Y3R0; conditions: plain residues with an end cap or a label only (N-terminal biotin on a linker: ado-ado)
T12 sequence (Q9Y3R0 568-668, limits assumed, looked up): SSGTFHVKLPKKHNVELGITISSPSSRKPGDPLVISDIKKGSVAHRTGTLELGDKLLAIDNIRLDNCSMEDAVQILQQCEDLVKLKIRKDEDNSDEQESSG

[25] = molecular target: DLG2_2, Q15700
[26] = molecular target: DLG1_3, Q12959; conditions: plain residues with an end cap or a label only (N-terminal biotin on a linker: ado-ado)
Sequence of DLG1_3, Q12959 (Q12959 457-571): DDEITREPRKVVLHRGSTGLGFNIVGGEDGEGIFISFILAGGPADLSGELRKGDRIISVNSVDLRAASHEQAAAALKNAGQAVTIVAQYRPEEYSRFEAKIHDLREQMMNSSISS

[27] = molecular target: HTRA1, Q92743
Sequence of HTRA1, Q92743 (Q92743 360-477): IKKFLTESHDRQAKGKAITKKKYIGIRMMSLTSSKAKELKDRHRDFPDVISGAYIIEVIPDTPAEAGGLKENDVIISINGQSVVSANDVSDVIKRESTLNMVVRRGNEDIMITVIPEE

[28] = molecular target: GORASP2, Q9H8Y8; conditions: plain residues with an end cap or a label only (N-terminal biotin on a linker: ado-ado)
[29] = molecular target: T13, MPDZ_10, O75970; conditions: plain residues with an end cap or a label only (N-terminal biotin on a linker: ado-ado)
T13 sequence (O75970 1624-1722, limits assumed, looked up): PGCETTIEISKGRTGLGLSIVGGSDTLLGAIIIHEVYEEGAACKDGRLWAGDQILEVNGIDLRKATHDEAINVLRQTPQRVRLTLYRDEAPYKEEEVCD

[30] = molecular target: T14, MPDZ_12, O75970; conditions: plain residues with an end cap or a label only (N-terminal biotin on a linker: ado-ado)
T14 sequence (O75970 1857-1958, limits assumed, looked up): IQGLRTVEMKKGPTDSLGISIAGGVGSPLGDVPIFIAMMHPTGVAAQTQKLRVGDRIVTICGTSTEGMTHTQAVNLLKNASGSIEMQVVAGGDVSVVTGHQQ

[31] = molecular target: DLG4_2, P78352; conditions: plain residues with an end cap or a label only (N-terminal biotin on a linker: ado-ado)
Sequence of DLG4_2, P78352 (P78352 155-259): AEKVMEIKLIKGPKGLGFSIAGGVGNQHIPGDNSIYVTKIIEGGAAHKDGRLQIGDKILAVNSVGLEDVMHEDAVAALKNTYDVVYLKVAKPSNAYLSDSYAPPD

[32] = molecular target: TJP1_3, Q07157; conditions: plain residues with an end cap or a label only (N-terminal biotin on a linker: ado-ado)
Sequence of TJP1_3, Q07157 (Q07157 416-512): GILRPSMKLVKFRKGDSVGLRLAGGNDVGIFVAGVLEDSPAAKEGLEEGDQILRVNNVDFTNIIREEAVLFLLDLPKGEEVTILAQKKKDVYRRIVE

[33] = molecular target: T15, APBA1_2, Q02410; conditions: plain residues with an end cap or a label only (N-terminal biotin on a linker: ahx)
T15 sequence (Q02410 742-832, limits assumed, looked up): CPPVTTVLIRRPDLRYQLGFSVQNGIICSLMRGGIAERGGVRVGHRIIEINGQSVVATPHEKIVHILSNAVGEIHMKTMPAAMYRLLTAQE

[34] = molecular target: DLG1_2, Q12959; conditions: plain residues with an end cap or a label only (N-terminal biotin on a linker: ahx)
Sequence of DLG1_2, Q12959 (Q12959 314-412): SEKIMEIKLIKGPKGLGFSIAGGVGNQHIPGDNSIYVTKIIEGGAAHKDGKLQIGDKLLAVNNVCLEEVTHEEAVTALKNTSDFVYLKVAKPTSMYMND

[35] = molecular target: IL16_1, Q14005; conditions: plain residues with an end cap or a label only (N-terminal biotin on a linker: ahx)
Sequence of IL16_1, Q14005 (Q14005 210-306): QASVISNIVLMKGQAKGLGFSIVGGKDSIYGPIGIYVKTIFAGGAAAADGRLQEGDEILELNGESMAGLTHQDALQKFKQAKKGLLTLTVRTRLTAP

[36] = molecular target: GRASP, Q7Z6J2; conditions: plain residues with an end cap or a label only (N-terminal biotin on a linker: ahx)
Sequence of GRASP, Q7Z6J2 (Q7Z6J2 96-193): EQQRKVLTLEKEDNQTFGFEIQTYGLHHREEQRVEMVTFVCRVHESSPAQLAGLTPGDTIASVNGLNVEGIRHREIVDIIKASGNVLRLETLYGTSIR

[37] = molecular target: MAGI2_6, Q86UL8; conditions: plain residues with an end cap or a label only (N-terminal biotin on a linker: ahx)
Sequence of MAGI2_6, Q86UL8 (Q86UL8 1141-1229): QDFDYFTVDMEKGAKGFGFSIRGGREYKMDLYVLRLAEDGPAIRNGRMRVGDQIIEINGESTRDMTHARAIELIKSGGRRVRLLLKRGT

[38] = molecular target: Inadl_10, Q8NI35; conditions: plain residues with an end cap or a label only (N-terminal biotin on a linker: ahx)
Sequence of Inadl_10, Q8NI35 (Q8NI35 1673-1763): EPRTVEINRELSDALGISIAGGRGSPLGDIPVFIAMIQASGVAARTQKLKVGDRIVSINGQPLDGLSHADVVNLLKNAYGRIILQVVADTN

[39] = molecular target: T16, ARHGEF11, O15085; conditions: plain residues with an end cap or a label only (N-terminal biotin on a linker: ahx)
T16 sequence (O15085 42-136, limits assumed, looked up): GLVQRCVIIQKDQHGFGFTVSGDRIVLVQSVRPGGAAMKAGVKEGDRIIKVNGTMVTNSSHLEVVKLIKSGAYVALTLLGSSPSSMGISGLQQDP

[40] = molecular target: ARHGEF12, Q9NZN5-2; conditions: plain residues with an end cap or a label only (N-terminal biotin on a linker: ahx)
Sequence of ARHGEF12, Q9NZN5-2 (Q9NZN5 other isoform, or with tags, fused parts or gaps): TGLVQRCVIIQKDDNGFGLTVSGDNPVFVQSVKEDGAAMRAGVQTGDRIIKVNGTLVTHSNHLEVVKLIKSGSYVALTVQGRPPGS

[41] = molecular target: NOS1, P29475; conditions: plain residues with an end cap or a label only (N-terminal biotin on a linker: ahx)
Sequence of NOS1, P29475 (P29475 9-101): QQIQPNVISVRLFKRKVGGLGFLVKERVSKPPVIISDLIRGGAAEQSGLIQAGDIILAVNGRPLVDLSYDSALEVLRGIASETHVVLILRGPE

[42] = molecular target: MAGI2_5, Q86UL8; conditions: plain residues with an end cap or a label only (N-terminal biotin on a linker: ahx)
Sequence of MAGI2_5, Q86UL8 (Q86UL8 915-1017): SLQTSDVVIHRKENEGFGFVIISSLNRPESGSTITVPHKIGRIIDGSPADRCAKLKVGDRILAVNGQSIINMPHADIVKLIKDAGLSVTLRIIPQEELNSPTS

[43] = plain residues with an end cap or a label only (N-terminal biotin on a linker: ado-ado)
[44] = plain residues with an end cap or a label only (N-terminal biotin on a linker: ahx)

KSTTRSSSSC [NDE1, Q9NXR1]
pKd [1]: 3.64 | pKd [2]: 3.58 | pKd [3, 43]: 3.59 | pKd [4, 43]: 3.76 | pKd [5]: 3.75 | pKd [6, 43]: 3.64 | pKd [7]: 3.73 | pKd [8, 43]: 3.85 | pKd [9]: 3.6 | pKd [10]: 3.52 | pKd [11, 43]: 3.71 | pKd [12]: 3.74 | pKd [13]: 3.88 | pKd [14]: 3.85 | pKd [15, 43]: 3.61

RRSQSPSANC [a stretch of P69709, P69709]
pKd [16]: below the threshold

EYRKDNKVAA [LSM14A, Q8ND56]
pKd [17]: 3.55 | pKd [18]: 3.68 | pKd [1]: 3.83 | pKd [19]: 3.57 | pKd [2]: 3.88 | pKd [20]: 3.67 | pKd [21]: 3.51 | pKd [22, 43]: 3.82 | pKd [23]: 3.51 | pKd [24]: 3.6 | pKd [25, 43]: 3.54 | pKd [26]: 3.64 | pKd [27, 43]: 3.67 | pKd [28]: 3.52 | pKd [29]: 3.68 | pKd [30]: 3.68 | pKd [31]: 3.71 | pKd [32]: 3.53 | pKd [14]: 3.61

LCKSHAFSHV [PDLIM7, Q9NR12]
pKd [33]: 3.83 | pKd [34]: 3.48 | pKd [35]: 3.51 | pKd [3, 44]: 3.62 | pKd [4, 44]: 3.7 | pKd [36]: 3.65 | pKd [37]: 3.61 | pKd [6, 44]: 3.67 | pKd [8, 44]: 3.48 | pKd [38]: 3.52 | pKd [22, 44]: 3.51 | pKd [39]: 3.48 | pKd [11, 44]: 3.9 | pKd [40]: 3.55 | pKd [25, 44]: 3.56 | pKd [41]: 3.48 | pKd [27, 44]: 3.68 | pKd [42]: 3.86 | pKd [15, 44]: 3.75
